{"source": "paper PMC3326396", "about": "(Biochemistry, 2012)", "target": "the molecule itself", "assay": "SEC"}
{"protein": "N-terminal Strep2-(G4S)3-tagged PhaC purified from R. eutropha (enzyme, Ralstonia eutropha H16, UniProt P23608 2-589, looked up) ATGKGAAASTQEGKSQPFKVTPGPFDPATWLEWSRQWQGTEGNGHAAASGIPGLDALAGVKIAPAQLGDIQQRYMKDFSALWQAMAEGKAEATGPLHDRRFAGDAWRTNLPYRFAAAFYLLNARALTELADAVEADAKTRQRIRFAISQWVDAMSPANFLATNPEAQRLLIESGGESLRAGVRNMMEDLTRGKISQTDESAFEVGRNVAVTEGAVVFENEYFQLLQYKPLTDKVHARPLLMVPPCINKYYILDLQPESSLVRHVVEQGHTVFLVSWRNPDASMAGSTWDDYIEHAAIRAIEVARDISGQDKINVLGFCVGGTIVSTALAVLAARGEHPAASVTLLTTLLDFADTGILDVFVDEGHVQLREATLGGGAGAPCALLRGLELANTFSFLRPNDLVWNYVVDNYLKGNTPVPFDLLFWNGDATNLPGPWYCWYLRHTYLQNELKVPGKLTVCGVPVDLASIDVPTYIYGSREDHIVPWTAAYASTALLANKLRFVLGASGHIAGVINPPAKNKRSHWTNDALPESPQQWLAGAIEHHGSWWPDWTAWLAGQAGAKRAAPANYGNARYRAIEPAPGRYVKAKA", "values": [{"measurement": "stoichiometry N", "value": 2}]}
{"protein": "N-terminal-Strep2-(G4S)3-tagged PhaC purified from E. coli (enzyme, Ralstonia eutropha H16, UniProt P23608 2-589, looked up) ATGKGAAASTQEGKSQPFKVTPGPFDPATWLEWSRQWQGTEGNGHAAASGIPGLDALAGVKIAPAQLGDIQQRYMKDFSALWQAMAEGKAEATGPLHDRRFAGDAWRTNLPYRFAAAFYLLNARALTELADAVEADAKTRQRIRFAISQWVDAMSPANFLATNPEAQRLLIESGGESLRAGVRNMMEDLTRGKISQTDESAFEVGRNVAVTEGAVVFENEYFQLLQYKPLTDKVHARPLLMVPPCINKYYILDLQPESSLVRHVVEQGHTVFLVSWRNPDASMAGSTWDDYIEHAAIRAIEVARDISGQDKINVLGFCVGGTIVSTALAVLAARGEHPAASVTLLTTLLDFADTGILDVFVDEGHVQLREATLGGGAGAPCALLRGLELANTFSFLRPNDLVWNYVVDNYLKGNTPVPFDLLFWNGDATNLPGPWYCWYLRHTYLQNELKVPGKLTVCGVPVDLASIDVPTYIYGSREDHIVPWTAAYASTALLANKLRFVLGASGHIAGVINPPAKNKRSHWTNDALPESPQQWLAGAIEHHGSWWPDWTAWLAGQAGAKRAAPANYGNARYRAIEPAPGRYVKAKA", "values": [{"measurement": "stoichiometry N", "value": 2}]}
